Two molecules from patent US20230002478A1 (published 2023) can be followed below.

One assay has as its target SARS-CoV-2 S1 (SARS-CoV-2, UniProt P0DTC2 16-685). The assay can be described thus: SPR. A general note: SPR reads the build-up and loss of mass on a sensor chip optically.
The target in a further assay is SARS-CoV-2 S Trimer (SARS-CoV-2, UniProt P0DTC2 16-1213). The assay can be described thus: SPR.

Bounds are passed on as bounds.

B1: antibody 202-03 (Fc fusion)
chain: EVQLVESGGGLVQPGGSLRLSCAASGFTFSPSWMGWFRQAPGKEREFVATINEYGGRNYADSVKGRFTISADNSKNTAYLQMNSLKPEDTAVYYCARVDRDFDYWGQGTLVTVSS
Usually Kd stands for a measure of binding affinity in units of concentration. Lower therefore signals tighter binding. For B1, the figures for the Kd with SARS-CoV-2 S1 and with SARS-CoV-2 S Trimer were 0.011 nM and 0.299 nM, respectively.

B2: antibody 339-031 (Fc fusion)
chain: EVQLVESGGGLVQPGGSLRLSCAASGSTFSINAMGWFRQAPGKEREFVAGITSSGGYTNYADSVKGRFTISADNSKNTAYLQMNSLKPEDTAVYYCAADGVPEYSDYASGPVWGQGTLVTVSS
Regarding B2, the Kd with SARS-CoV-2 S1 is 0.006 nM; with SARS-CoV-2 S Trimer, less than 0.014 nM.
